Source: US20030152514A1 (ABGENIX, published 2003)
Values joined by “and” are separate entries in the source; they are usually repeats but may differ in a detail not shown here. Identical values can stand only once.

Tests used:
[1] = target: T1, MUC18-V5-His antigen (extracellular domain aa 1-559 of human MUC18 fused to V5-HIS) (human, UniProt P43121 24-559); assay: SPR (Biacore 3000), mAb captured on protein A, MUC18-V5-His in flow, 1:1 model; October 2001, chip II; exponent printed without its minus sign
[2] = target: T2, human MUC18 expressed by human melanoma cells (A375-SM, TXM-13, WM-2664) (human, UniProt P43121 24-646); assay: immunoblot of melanoma cell lysates (40 ug protein, 10% SDS-PAGE, denatured MUC18), anti-human IgG secondary, ECL
T2 construct: whole, on cells; also called MCAM; Mel-CAM
Description: (§1) After overnight incubation, the plates were washed two times in PBS, and scraped in 400 μl Triton lysis buffer containing a cocktail of protease inhibitors plus DTT. Following centrifugation, the protein concentration was determined using a kit from BioRad. 40 μg of protein was loaded onto a 10% SDS-PAGE and electrophoretically transferred to a 0.45 -micron nitrocellulose membrane (Millipore). The membrane was incubated in buffer containing anti-MUC18 antibody overnight, reacted with a conjugated secondary antibody (Anti-human IgG) for one hour and the proteins were subsequently detected by the ECL (Amersham Corp) method according to the manufactures protocol.

[3] = target: T1, MUC18-V5-His antigen (extracellular …); assay: SPR (Biacore 3000), mAb captured on protein A, MUC18-V5-His in flow, 1:1 model; May 2001, chip I; exponent printed without its minus sign
[4] = target: T1, MUC18-V5-His antigen (extracellular …); assay: SPR (Biacore 3000), mAb captured on protein A, MUC18-V5-His in flow, 1:1 model; October 2001, chip II
[5] = target: T1, MUC18-V5-His antigen (extracellular …); assay: SPR (Biacore 3000), mAb captured on protein A, MUC18-V5-His in flow, 1:1 model; May 2001, chip I
[6] = target: T3, mouse MUC18 protein of normal (nude) mouse endothelial cells (mouse, UniProt Q8R2Y2 24-648); assay: immunoblot of nude mouse endothelial cell lysate (40 ug protein, 10% SDS-PAGE), anti-human IgG secondary, ECL
T3 construct: whole, on cells; Tested as cell lysate on SDS-PAGE immunoblot, not on intact cells; also called NME; NME2 cells
T3 sequence (looked up): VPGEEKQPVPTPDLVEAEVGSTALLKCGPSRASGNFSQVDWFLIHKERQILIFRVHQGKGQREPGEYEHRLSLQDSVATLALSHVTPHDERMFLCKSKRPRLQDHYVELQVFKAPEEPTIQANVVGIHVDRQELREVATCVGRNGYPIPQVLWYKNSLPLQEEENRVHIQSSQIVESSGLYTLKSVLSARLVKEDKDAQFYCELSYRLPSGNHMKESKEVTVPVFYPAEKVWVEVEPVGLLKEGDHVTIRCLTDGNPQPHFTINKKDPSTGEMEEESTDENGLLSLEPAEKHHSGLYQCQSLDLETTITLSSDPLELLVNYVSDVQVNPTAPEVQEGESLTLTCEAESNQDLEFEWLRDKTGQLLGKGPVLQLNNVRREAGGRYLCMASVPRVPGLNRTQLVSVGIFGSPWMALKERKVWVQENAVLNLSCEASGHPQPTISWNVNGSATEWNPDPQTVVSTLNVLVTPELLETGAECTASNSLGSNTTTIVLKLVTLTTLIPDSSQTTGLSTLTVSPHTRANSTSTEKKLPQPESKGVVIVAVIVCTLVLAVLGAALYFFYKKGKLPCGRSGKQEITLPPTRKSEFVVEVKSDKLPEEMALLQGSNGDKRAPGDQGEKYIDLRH
Description: as §1

[7] = target: T1, MUC18-V5-His antigen (extracellular …); assay: SPR (Biacore 3000), mAb captured on protein A, MUC18-V5-His in flow, 1:1 model; November 2001, chip III; exponent printed without its minus sign
[8] = target: T1, MUC18-V5-His antigen (extracellular …); assay: SPR (Biacore 3000), average of the seven measurements
[9] = target: T1, MUC18-V5-His antigen (extracellular …); assay: SPR (Biacore 3000), mAb captured on protein A, MUC18-V5-His in flow, 1:1 model; November 2001, chip III

B1: anti-MUC18 antibody c3.19.1 (antibody, human IgG2, V domains shown)
VH: QVQLQESGPGLVKPSETLSLTCTVSGGSISSYYWSWIRQPPGKGLEWIGYIYYTWTSNYNPSLKSRVTISVDTSKNQFSLRLSSVTAADTAVYYCARDQGQWLLPDAFDIWGQGTMVTVSS
VL: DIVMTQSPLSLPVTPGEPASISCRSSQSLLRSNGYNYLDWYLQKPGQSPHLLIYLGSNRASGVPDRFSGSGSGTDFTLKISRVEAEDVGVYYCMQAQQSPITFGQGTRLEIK
notes: also called ABX-MA1; MAb 3.19.1
**Q.** Which results are given for B1?
**A.** koff [1]: 0.000402 s⁻¹ and 0.000396 s⁻¹; binding result [2]: binds; koff [3]: 0.000302 s⁻¹; Kd [4]: 0.57 nM and 0.69 nM; kon [4]: 709000 M⁻¹ s⁻¹ and 575000 M⁻¹ s⁻¹; Kd [5]: 0.67 nM; kon [5]: 453000 M⁻¹ s⁻¹; binding result [6]: no binding; koff [7]: 0.000347 s⁻¹ and 0.000385 s⁻¹ and 0.000402 s⁻¹ and 0.000389 s⁻¹; Kd [8]: 0.61 nM; koff [8]: 0.000375 s⁻¹; kon [8]: 627000 M⁻¹ s⁻¹; Kd [9]: 0.46 nM and 0.62 nM and 0.65 nM and 0.59 nM; kon [9]: 749000 M⁻¹ s⁻¹ and 625000 M⁻¹ s⁻¹ and 615000 M⁻¹ s⁻¹ and 661000 M⁻¹ s⁻¹
